Data: PMC11474084, “Capturing a methanogenic carbon monoxide dehydrogenase/acetyl-CoA synthase complex via cryogenic electron microscopy” (Proceedings of the National Academy of Sciences of the …, 2024)

B1: Methanosarcina thermophila carbon monoxide dehydrogenase (MetCODH) α subunit (enzyme, UniProt A0A0E3ND19 1-803, looked up)
chain: MSKLTTGSFSIEDLESVQITINNIVGAAKEAAEKAEEELGPMGPTPFPTAATVRDWSFTLFDRYEPVYTPMCDQCCYCTFGPCNLEGNRRGACGLDMKGQAAREFFLRCITGCACHSAHGRHLLDHIISIFGEDMPINMGASNVIAPNIQLITGRQPKTLGDLKPIMEYVEEELGQLLATVHAGQEGAAIDYDNKAMLAGILDHVGMEVSDIAQVTALGFPKSDPEAPLVEVGMGTLDASKPVIIAIGHNVAGVTYIMDYMEDNNLTDKMEIGGLCCTAFDMTRYKREDRKPPYAKIVGTISKELKVVRSGIPDVIVIDEQCVRADLVEEGKKLKIPVIASNEKVMYGLPDRTNDDVDAIIEDIKTGKIPGCVMLDYEKLGELVPRLAMEMAPLREGISAIPSDEEMASLVAKCVACGECALACPEELDIPDAIQAAKEGDFTALDFLHDLCVGCRRCEQVCNKEIPILSVIDKAAQKAIAEEKGLVRAGRGQVSDAEIRAEGLNLVMGTTPGVIAIIGCANYPAGSKDVYRIAEEFLNRNYIVAVSGCSAMDIGMYKDADGKTLYERFPGRFERGNILNTGSCVSNSHISGTCHKVAAIFAGRNLSGNLAEIADYTLNRVGAVGLAWGAYSQKAAAIGTGCNMYGIPAVLGPHSGKYRRALIAKTYDENKWKVYDSRNGSELDIPPSPEFLITTAETWQEACVLLAKNCIRPSDNNMGRSIKLTHWIELSEKYLGVLPEDWWKFVRHEADLPLSRREELLKKLETEHGWEIDWKKKKIISGPKIKFDVSSQPTNLKRLCKEA
notes: α subunit of the CODH component of the acetyl-CoA decarbonylase/synthase (ACDS) complex, Methanosarcina thermophila strain TM-1; source: purified from M. thermophila strain TM-1 as part of the ACDS complex (Sepharose CL-6B); subcomplexes formed by dissociation on the cryo-EM grid

How the values were obtained:
[1] = target: the molecule itself; experiment: cryo-EM structure; purified native ACDS complex, 4 mg/mL in 25 mM MOPS, 25 mM Na2SO4, pH 7.2; chameleon-plunged, dispense-to-plunge time 150 ms; on-grid dissociation gave CODH tetramer (2.8 Å), CODH/ACS pentamer and hexamer (3.2 Å each)
[2] = target: B1; experiment: as above; settings: both partners purified

binding result [2]	Binder	binding result [1]
	B1	binds
binds	Methanosarcina thermophila acetyl-CoA synthase (MetACS) β subunit (enzyme, UniProt A0A0E3NEI1 1-472, looked up, β (ACS) subunit of the ACDS complex, Methanosarcina thermophila strain TM-1; native protein; the model building counts residues 1 to 472, of which 398 to 472 (C-terminal extension) had no EM density; A2 domain residues 4 to 151, A3 domain residues 186 to 397; Carries the Ni-Fe-S A-cluster, with density modelled as CO on the proximal nickel; The deposited coordinates hold only about residues 1-397 …) MSEFPFEISPMFEGERVRKEGMFVELGGPKSLGLELVRAKPMDEIEDGKVTIVGPDLKDMEEGKTYPWAMIFHVGGELVEPDLESVIERRVHDFINYCQGIMHLNQRYDVWMRISKDTAAKMDSFEPFGKAVMMLFKTELPFIEKMQVTFYTDQAEVEKQMAEAMEIFKARDARTKDLHDEDVDVFYGCTLCQSFAPTNVCVVSPDRVSLCGAINWFDGRAAAKVDPEGPQFAIEKGELLDAKTGEYSGVNEVAKKLSSGEFDKIKLHSFFDAPHTSCGCFEVVGFYIPEVDGIGWVNREYQGMAPNGLGFSTMAGQTGGGKQIVGFLGIGINYFYSPKFIQADGGWNRVVWLPSMLKEKIDEAIPDDMKDKIATEKDVTDIESLKTFLKEKNHPVVANWAAEAEEEEEEEEEEEEVAAEAAPMMMPAAGFQMPAMPAMPMMSGGAGGIKLTFKNAKITIDRMIISEKKEKK	
